{
  "source": "patent US20210332112A1",
  "about": "(University of Texas, published 2021)",
  "binders": {"B1": {"name": "hu1B7 antibody (antibody, V domains shown)", "VH": "EVQLVESGGGLVQPGGSLRLSCAASGYKFTSYWMHWVRQAPGKGLEWVGNIFPGSGSTNYDEKFNSRFTISVDTSKNTAYLQMNSLRAEDTAVYYCTRWLSGAYFDYWGQGTLVTVSS", "VL": "DIQMTQSPSSLSASVGDRVTITCSASSSVSFMYWYQQKPGKAPKLLIYLTSNLPSGVPSRFSGFGSGTDYTLTISSLQPEDFATYYCQQWSSHPPTFGQGTKVEIK"}},
  "biological_target": "pertussis toxin (Bordetella pertussis, UniProt P04977 35-269; P04978 28-226; P04979 29-227; P0A3R5 43-152; P04981 35-133)",
  "test": "ELISA, plate coated with pertussis toxin, antibody titrated, detection with goat anti-human kappa constant domain-HRP [panel C]",
  "data": [
    {"binder": "B1", "values": [
      {"measurement": "EC50 (read off the curve)", "result": "~0.05", "unit": "µg/mL"}
    ]}
  ]
}
